# Data from publication PMC7758880 (Molecular Cell, 2020).
# T1: Smc6 with a triple StrepII tag (S. cerevisiae, UniProt Q12749 1-1114)
# T1 sequence: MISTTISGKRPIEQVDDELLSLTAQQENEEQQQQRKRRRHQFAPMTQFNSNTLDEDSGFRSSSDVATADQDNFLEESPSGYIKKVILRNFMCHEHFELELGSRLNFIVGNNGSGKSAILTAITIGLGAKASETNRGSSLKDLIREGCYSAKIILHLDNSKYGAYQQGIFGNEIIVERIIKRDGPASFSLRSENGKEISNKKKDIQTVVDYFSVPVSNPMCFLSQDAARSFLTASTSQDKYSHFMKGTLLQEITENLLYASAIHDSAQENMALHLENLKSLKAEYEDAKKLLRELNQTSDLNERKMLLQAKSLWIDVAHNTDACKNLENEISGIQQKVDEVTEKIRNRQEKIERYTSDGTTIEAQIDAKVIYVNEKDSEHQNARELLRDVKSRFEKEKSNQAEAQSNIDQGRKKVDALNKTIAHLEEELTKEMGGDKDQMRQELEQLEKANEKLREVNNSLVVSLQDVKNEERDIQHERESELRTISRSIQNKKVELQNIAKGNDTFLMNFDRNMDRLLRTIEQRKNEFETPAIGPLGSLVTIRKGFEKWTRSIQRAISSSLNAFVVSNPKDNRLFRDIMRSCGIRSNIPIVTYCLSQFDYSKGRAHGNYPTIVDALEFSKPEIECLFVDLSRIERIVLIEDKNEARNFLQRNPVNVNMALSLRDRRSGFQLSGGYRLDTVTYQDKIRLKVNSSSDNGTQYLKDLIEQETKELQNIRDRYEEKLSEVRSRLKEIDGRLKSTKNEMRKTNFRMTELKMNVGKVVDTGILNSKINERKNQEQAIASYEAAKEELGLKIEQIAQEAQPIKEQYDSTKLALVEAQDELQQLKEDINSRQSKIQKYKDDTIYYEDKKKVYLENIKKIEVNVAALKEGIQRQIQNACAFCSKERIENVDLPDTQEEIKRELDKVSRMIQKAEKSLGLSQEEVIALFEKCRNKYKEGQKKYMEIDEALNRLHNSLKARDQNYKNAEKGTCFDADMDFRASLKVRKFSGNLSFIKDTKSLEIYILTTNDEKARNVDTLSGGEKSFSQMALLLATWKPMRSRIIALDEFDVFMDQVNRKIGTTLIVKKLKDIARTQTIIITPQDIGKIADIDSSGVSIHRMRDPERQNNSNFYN
# B1: Nse3 (natural protein)
# chain: MSSIDNDSDVDLTEDLAVAKIVKENPVARKMVRYILSRGESQNSIITRNKLQSVIHEAAREENIAKPSFSKMFMDINAILYNVYGFELQGLPSKNNMNAGGNGSNSNTNKSMPEPLGHRAQKFILLNNVPHSKNFDDFKILQSAHTYEELIVTGEYIGDDIASGTSNTLESKLSTDRDLVYKGVLSVILCIVFFSKNNILHQELIKFLETFGIPSDGSKIAILNITIEDLIKSLEKREYIVRLEEKSDTDGEVISYRIGRRTQAELGLESLEKLVQEIMGLEKEQTKSLHDDIIKSIGDSYSI
# B2: Nse4 with 8xHis and 3xHA tags (natural protein)
# chain: MSSTVISRKRRNSTVTEPDSSGETRKQKKSRSDEKSSSSKDGDPQLEFKVLQGYRDLESEMHKGRAQVTRTGDIGVAMDNLNAVDSLFNKVIGIKNNGLFAHDARAMVSISELAQISVRNLKFDDSRSMVNLENIVNSLKRYMLKEHFKLNNIAENRNDLTLAADEQSAADQQEESDGDIDRTPDDNHTDKATSSFKATSMRHSYLQQFSHYNEFSQFNWFRIGALYNTISKNAPITDHLMGPLSIEKKPRVLTQRRRNNDQVGEKITAEKITQHSLNSTQQETTPEQVKKCFKKLSKKLGPEGSINLFKFIIDPNSFSRSIENLFYTSFLIKEGKLLMEHDEEGLPTIKIKQSISHTDSRSKEIERQRRRAAHQNHIIFQMDMPTWRKLIKKYNITSPFLD
# B3: Nse1 (natural protein)
# chain: MEVHEEQVSAPVTGDATAKYLLQYILSARGICHENALILALMRLETDASTLNTEWSIQQWVDKLNDYINAINVKLNLLGYKIIRINHGIGRNAVTLKAKQNFESFEDNTAIRAHNNDYAVLQSIVLPESNRFFVYVNLASTEETKLATRFNQNEIEFMKWAIEQFMISGETIVEGPALETSIIVKEVNRILVAATGDSNLAKWRKFSTFTVGSTNLFQFQELTATDIEDLLLRLCELKWFYRTQEGKFGIDLRCIAELEEYLTSMYNLNTCQNCHKLAIQGVRCGNESCREENEETGENSLSQIWHVDCFKHYITHVSKNCDRCGSSLITEGVYVI
# B4: Nse5 (natural protein)
# chain: MDGALINSVLYVSPRNGAHYFVELTEKHLLAFEMLNSMCLLENYDHVLLFLECQFGKSHNLAVIPFDIILVLFTLSTLSEYYKEPILRANDPYNTSRETLSRRALKLLQKYLAILKEFDSEQYNLYDLELLRCQFFLAIDTLTPKKQKWGFDRFRRTKSESGVTYRQNASVDPELDQAKTFKNPYRSYISCLEQRNTILGNRLLNLKLNEPGEFINMILWTLSNSLQESTPLFLSSHEIWMPLLEILIDLFSCRQDYFIQHEVAQNVSKSLFVQRLSESPLAVFFESLNTRNFANRFSEYVFLNCDYKLPSDNYATPVHPVYNGENTIVDTYIPTIKCSPLYKSQKSLALRRKLIGSCFKLLLRVPDGHRLITPRIVADDVIQGISRTLASFNDILQFKKFFMTENLSQESYFIPLLAEGTLSEILKDTQECVVILTLVENLSDGVSFCNEVIGLVKSKCFAFTEQCSQASYEEAVLNIEKCDVCLLVLLRYLLHLIGTEAILDAKEQLEMLHAIEKNDSGRRQWAKALNLGNDPPLLYPIVSQMFGVHDKSVIIE
# B5: Nse2 (enzyme)
# chain: MALNDNPIPKSVPLHPKSGKYFHNLHARDLSNIYQQCYKQIDETINQLVDSTSPSTIGIEEQVADITSTYKLLSTYESESNSFDEHIKDLKKNFKQSSDACPQIDLSTWDKYRTGELTAPKLSELYLNMPTPEPATMVNNTDTLKILKVLPYIWNDPTCVIPDLQNPADEDDLQIEGGKIELTCPITCKPYEAPLISRKCNHVFDRDGIQNYLQGYTTRDCPQAACSQVVSMRDFVRDPIMELRCKIAKMKESQEQDKRSSQAIDVL
# B6: Smc5 (natural protein)
# chain: MTSLIDLGRYVERTHHGEDTEPRSKRVKIAKPDLSSFQPGSIIKIRLQDFVTYTLTEFNLSPSLNMIIGPNGSGKSTFVCAVCLGLAGKPEYIGRSKKVEDFIKNGQDVSKIEITLKNSPNVTDIEYIDARDETIKITRIITRSKRRSDYLINDYQVSESVVKTLVAQLNIQLDNLCQFLSQERVEEFARLKSVKLLVETIRSIDASLLDVLDELRELQGNEQSLQKDLDFKKAKIVHLRQESDKLRKSVESLRDFQNKKGEIELHSQLLPYVKVKDHKEKLNIYKEEYERAKANLRAILKDKKPFANTKKTLENQVEELTEKCSLKTDEFLKAKEKINEIFEKLNTIRDEVIKKKNQNEYYRGRTKKLQATIISTKEDFLRSQEILAQTHLPEKSVFEDIDIKRKEIINKEGEIRDLISEIDAKANAINHEMRSIQRQAESKTKSLTTTDKIGILNQDQDLKEVRDAVLMVREHPEMKDKILEPPIMTVSAINAQFAAYLAQCVDYNTSKALTVVDSDSYKLFANPILDKFKVNLRELSSADTTPPVPAETVRDLGFEGYLSDFITGDKRVMKMLCQTSKIHTIPVSRRELTPAQIKKLITPRPNGKILFKRIIHGNRLVDIKQSAYGSKQVFPTDVSIKQTNFYQGSIMSNEQKIRIENEIINLKNEYNDRKSTLDALSNQKSGYRHELSELASKNDDINREAHQLNEIRKKYTMRKSTIETLREKLDQLKREARKDVSQKIKDIDDQIQQLLLKQRHLLSKMASSMKSLKNCQKELISTQILQFEAQNMDVSMNDVIGFFNEREADLKSQYEDKKKFVKEMRDTPEFQSWMREIRSYDQDTKEKLNKVAEKYEEEGNFNLSFVQDVLDKLESEIAMVNHDESAVTILDQVTAELRELEHTVPQQSKDLETIKAKLKEDHAVLEPKLDDIVSKISARFARLFNNVGSAGAVRLEKPKDYAEWKIEIMVKFRDNAPLKKLDSHTQSGGERAVSTVLYMIALQEFTSAPFRVVDEINQGMDSRNERIVHKAMVENACAENTSQYFLITPKLLTGLHYHEKMRIHCVMAGSWIPNPSEDPKMIHFGETSNYSFD
# Target: B2
# Test: cross-linking
row,Binder,binding result
1,B1,binds

# Target: T1, Smc6 with a triple StrepII tag
# Test: cross-linking
row,Binder,binding result
1,B2,binds
2,B3,binds
3,B4,binds
4,B5,binds
5,B1,binds

# Target: B6
# Test: cross-linking
row,Binder,binding result
1,B2,binds
2,B3,binds
3,B4,binds
4,B5,binds
5,B1,binds

# Target: T1, Smc6 with a triple StrepII tag
# Test: affinity purification with mass spectrometry
row,Binder,binding result
1,B6,binds
